Source: FireProtDB (doi:10.1021/bi00105a011)

B1: Lysozyme C, P61626 (parent)
chain: MKALIVLGLVLLSVTVQGKVFERCELARTLKRLGMDGYRGISLANWMCLAKWESGYNTRATNYNAGDRSTDYGIFQINSRYWCNDGKTPGAVNACHLSCSALLQDNIADAVACAKRVVRDPQGIRAWVAWRNRCQNRDVRQYVQGCGV

Variants of: B1
Conditions: Homo sapiens; pH 3; 25 °C; GdnHCl; CD; glycine-HCl 40 mM; reversible: yes (100%); structure 1LZ1; whole UniProt chain shown

| Variant | ddG of mutation (higher = less stable) [kcal/mol] | denaturant m value [kcal/mol/M] | denaturant midpoint (higher = more stable) [M] | unfolding free energy [kcal/mol] |
| --- | --- | --- | --- | --- |
| MKALIVLGLVLLSVTVQGKVFERCELARTLKRLGMDGYRGISLANWMCLAKWESGYNTRATNYNAGDRSTDYGIFQINSRYWCNDGKTGGAVNACHLSCSALLQDNIADAVACAKRVVRDPQGIRAWVAWRNRCQNRDVRQYVQGCGV [P89G] | 1.2 | 5.43 | 2.63 | 8.5 |
| MKALIVLGLVLLSVTVQGKVFERCELARTLKRLGMDGYRGISLANWMCLAKWESGYNTRATNYNPGDRSTDYGIFQINSRYWCNDGKTPGAVNACHLSCSALLQDNIADAVACAKRVVRDPQGIRAWVAWRNRCQNRDVRQYVQGCGV [A65P] | -1.1 | 5.5 | 3.3 | 10.8 |
| MKALIVLGLVLLSVTVQGKVFERCELARTLKRLGMDGYRGISLANWMCLAKWESGYNTRATNYNAGDRSTDYGIFQINSRYWCNDGKTPGAVNACHLSCSALLQDNIADAVACAKRVVRDPQGIRAWPAWRNRCQNRDVRQYVQGCGV [V128P] | -2.4 | 6.69 | 3.05 | 12.1 |
| MKALIVLGLVLLSVTVQGKVFERCELARTLKRLGMDGYRGISLANWMCLAKWESGYNTRATNYNAGDRSTDYGIFQINSRYWCNDGKTGGAVNACHLSCSALLQDNIADAVACAKRVVRDGQGIRAWVAWRNRCQNRDVRQYVQGCGV [P89G P121G] | 1.1 | 5.48 | 2.64 | 8.6 |
| MKALIVLGLVLLSVTVQGKVFERCELARTLKRLGMDGYRGISLANWMCLAKWESGYNTRATNYNAGDRSTDYGIFQINSRYWCNDGKTPGAVNACHLSCSALLQDNIAPAVACAKRVVRDPQGIRAWVAWRNRCQNRDVRQYVQGCGV [D109P] | 0.8 | 5.42 | 2.78 | 8.9 |
| MKALIVLGLVLLSVTVQGKVFERCELARTLKRLGMDGYRGISLANWMCLAKWESGYNTRATNYNAGDRSTDYGIFQINSRYWCNDGKTPGAVNACHLSCSALLQDNIADAVACAKRVVRDGQGIRAWVAWRNRCQNRDVRQYVQGCGV [P121G] | 0 | 5.55 | 2.95 | 9.7 |
